According to US20160009789A1:

Key:
[1] = biological target: HXBc2; assay: ELISA; deglycosylated
[2] = biological target: Du156.12; assay: ELISA; deglycosylated
[3] = biological target: Du156.12; assay: ELISA

| Substance | EC50 [1] [µg/mL] | EC50 [2] [µg/mL] | EC50 [3] [µg/mL] |
| --- | --- | --- | --- |
| VRC01 Heavy chain: A56G |  |  | 0.101 |
| VRC01 Heavy chain: I30T |  |  | 0.063 |
| VRC01 Heavy chain: R53N |  |  | 0.063 |
| VRC01 Heavy chain: R61Q |  |  | 0.086 |
| VRC01 Heavy chain: T33Y |  |  | 0.048 |
| VRC01 Heavy chain: V57T |  |  | 0.164 |
| VRC01 Heavy chain: Y74S |  |  | 0.071 |

Now from value to substance:

| EC50 [1] [µg/mL] | EC50 [2] [µg/mL] | EC50 [3] [µg/mL] | Substance |
| --- | --- | --- | --- |
| 0.045 | 0.05 |  | Deglycosylated VRC01 |
|  |  | 0.056 | VRC01 Heavy chain: K52N |
|  |  | 0.066 | VRC01 Heavy chain: P62K |
|  |  | 0.097 | VRC01 Heavy chain: V73T |
|  |  | 0.196 | VRC01 Light chain: Y30S |
